For orientation: stoichiometry N means the number of molecules, sites or subunits per partner or assembly. What is called Kd is the constant that tells how readily two partners part at equilibrium. The low end stands for higher affinity, the high end for lower affinity.

The results in this text go back to publication PMC7886851 (Scientific Reports, 2021).

The labels stand for the following.
B1: SecYEG with SecY142C labelled with Atto647N (complex)
chain 1: MAKQPGLDFQSAKGGLGELKRRLLFVIGALIVFRIGSFIPIPGIDAAVLAKLLEQQRGTIIEMFNMFSGGALSRASIFALGIMPYISASIIIQLLTVVHPTLAEIKKEGESGRRKISQYTRYGTLVLAIFQSIGIATGLPNCPGMQGLVINPGFAFYFTAVVSLVTGTMFLMWLGEQITERGIGNGISIIIFAGIVAGLPPAIAHTIEQARQGDLHFLVLLLVAVLVFAVTFFVVFVERGQRRIVVNYAKRQQGRRVYAAQSTHLPLKVNMAGVIPAIFASSIILFPATIASWFGGGTGWNWLTTISLYLQPGQPLYVLLYASAIIFFSFFYTALVFNPRETADNLKKSGAFVPGIRPGEQTAKYIDKVMTRLTLVGALYITFISLIPEFMRDAMKVPFYFGGTSLLIVVVVIMDFMAQVQTLMMSSQYESALKKANLKGYGR
chain 2: MSANTEAQGSGRGLEAMKWVVVVALLLVAIVGNYLYRDIMLPLRALAVVILIAAAGGVALLTTKGKATVAFAREARTEVRKVIWPTRQETLHTTLIVAAVTAVMSLILWGLDGILVRLVSFITGLRF
chain 3: MYEALLVVFLIVAIGLVGLIMLQQGKGADMGASFGAGASATLFGSSGSGNFMTRMTALLATLFFIISLVLGNINSNKTNKGSEWENLSAPAKTEQTQPAAPAKPTSDIPN
modifications: Atto647N (maleimide dye) on cysteine 142; labelling efficiency 24%
B2: YidC23C labelled with Atto520 (YidC W23C, single cysteine) (natural protein)
chain: MDSQRNLLVIALLFVSFMIWQACEQDKNPQPQAQQTTQTTTTAAGSAADQGVPASGQGKLISVKTDVLDLTINTRGGDVEQALLPAYPKELNSTQPFQLLETSPQFIYQAQSGLTGRDGPDNPANGPRPLYNVEKDAYVLAEGQNELQVPMTYTDAAGNTFTKTFVLKRGDYAVNVNYNVQNAGEKPLEISSFGQLKQSITLPPHLDTGSSNFALHTFRGAAYSTPDEKYEKYKFDTIADNENLNISSKGGWVAMLQQYFATAWIPHNDGTNNFYTANLGNGIAAIGYKSQPVLVQPGQTGAMNSTLWVGPEIQDKMAAVAPHLDLTVDYGWLWFISQPLFKLLKWIHSFVGNWGFSIIIITFIVRGIMYPLTKAQYTSMAKMRMLQPKIQAMRERLGDDKQRISQEMMALYKAEKVNPLGGSFPLLIQMPIFLALYYMLMGSVELRQAPFALWIHDLSAQDPYYILPILMGVTMFFIQKMSPTTVTDPMQQKIMTFMPVIFTVFFLWFPSGLVLYYIVSNLVTIIQQQLIYRGLEKRGLHSREKKKS
modifications: Atto520 (maleimide dye) on cysteine 23; labelling efficiency 18%

The target in test [1] is B2. Nature of the test: FRET or BRET; ensemble FRET in detergent: 0.55 µM YidC-Atto520 (donor) in 0.03% dodecyl maltoside titrated with increasing SecYEG-Atto647N (acceptor); excitation 516 nm, donor at 538 nm, acceptor at 669 nm; buffer controls for dilution; Kd by Lineweaver-Burk linearisation. The note with it: both partners purified. (In general: Bioluminescence resonance energy transfer reports proximity on the nanometre scale.)

Test [2] addresses B1. The description is as above. The note with it: both partners purified.

On to B1, for which the “stoichiometry N” value in test [1] is 1.

For B2, the affinity in test [2], expressed as Kd, was 27 ± 10 nM.
